Residue numbers refer to the chain shown, from its start.

The target of data set [1] is T1, GST-YY1 (UniProt P25490 P25490:1-414). Put plainly: EMSA; 50 mM KCl, pH 8, poly(dI-dC), on ice. The note with it: tags: GST fusion, expressed in E. coli; label: 32P end. The method, then: (§1) The Kpnl-D4Z4 unit plasmid, used to generate EMSA probes for the experiments shown in FIGS. 2A-2C, was kindly provided by L. Felicetti. For the EMSA experiments shown in FIG. 4, oligonucleotide probes were prepared by end-labeling double-stranded oligonucleotides covering the region of the minimal binding site. The sequences of the oligonucleotides were as follows: WT, 5′-[…]-3′ (SEQ ID NO:1); MUT, 5′-CTCACCGCCgcc[…]-3′ (SEQ ID NO:2) (mutated nucleotides are shown in italics). DNA binding reactions were carried out in 20 μl of 10 mM HEPES (pH 8), 10% glycerol, 50 mM KCl, 0.1 mM EDTA, 0.25 mM DTT, 0.1 mg/ml poly (dl-dC), 0.1 mg/ml bovine serum albumin, 20,000 cpm of radiolabeled probe. The samples were incubated for 30 minutes on ice in the presence of the indicated nuclear extract or protein fraction. For competition assays, unlabeled probes were added to the reaction mixture at the same time as the labeled probe. For supershift assays, a binding reaction was assembled in the absence of radiolabeled probe. Antibodies were added to the binding reaction and the samples were incubated 15 minutes at room temperature. Radiolabled probe was added and the samples were incubated for additional 30 minutes on ice. Reaction mixtures were loaded in the cold room onto 6% native polyacrylamide gels containing 0.5×Tris-borate-EDTA (TBE) that had been preelectrophoresed for 30 minutes at 20 mA. […]
T1 sequence (P25490 whole entry, the tested form may be a part, one chain of several): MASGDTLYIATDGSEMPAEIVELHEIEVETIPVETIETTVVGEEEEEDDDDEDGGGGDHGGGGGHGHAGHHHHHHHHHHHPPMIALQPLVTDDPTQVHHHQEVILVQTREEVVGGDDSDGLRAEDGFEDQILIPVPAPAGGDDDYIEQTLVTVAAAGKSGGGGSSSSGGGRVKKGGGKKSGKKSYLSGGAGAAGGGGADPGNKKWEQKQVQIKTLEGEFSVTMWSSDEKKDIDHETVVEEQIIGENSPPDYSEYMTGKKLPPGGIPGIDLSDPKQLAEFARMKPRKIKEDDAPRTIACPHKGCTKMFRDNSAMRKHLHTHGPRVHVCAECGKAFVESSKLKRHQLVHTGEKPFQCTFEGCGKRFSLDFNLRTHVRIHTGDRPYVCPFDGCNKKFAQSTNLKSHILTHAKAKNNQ

Another data set addresses GST (UniProt P08515 P08515:2-218). Put plainly: EMSA; GST alone control. The note with it: tags: GST alone, label: 32P end. The method, then:
as §1
In general terms: Mobility shift assays separate free from complexed probe on a gel.

Data set [2] has as its target T1, GST-YY1. The experiment in a line: EMSA; YY1 core mutated. The settings on record: tags: GST fusion, expressed in E. coli; label: 32P end. The method, then: as §1

Chain of GST (P08515 2-218, one chain of several): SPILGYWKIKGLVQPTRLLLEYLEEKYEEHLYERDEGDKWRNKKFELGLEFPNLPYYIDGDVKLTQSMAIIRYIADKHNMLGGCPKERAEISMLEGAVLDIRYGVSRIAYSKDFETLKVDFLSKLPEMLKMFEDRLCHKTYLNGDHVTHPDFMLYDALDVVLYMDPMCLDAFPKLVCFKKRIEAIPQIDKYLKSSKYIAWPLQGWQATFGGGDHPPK

B1: DBE WT probe (dsDNA)
DNA 1: CTCACCGCCATTCATGAAGGGGTGGAGCCTGCCTG
DNA 2: CAGGCAGGCTCCACCCCTTCATGAATGGCGGTGAG
For the molecule B1, the binding result with GST-YY1 [1] was “binds”; with GST, “no binding”.

B2: DBE MUT probe (dsDNA)
DNA 1: B1 DNA 1 with A10G, T11C, T12C
DNA 2: B1 DNA 2 with A24G, A25G, T26C
B2: the binding result with GST-YY1 [2] is “no binding”.

Values taken from US20050054012, “Methods of detecting and treating facioscapulohumeral muscular dystrophy” (published 2005).
